Non-standard residues stand in square brackets, D forms with d. No end group written: not given here.
Molecular target: T1, WKYMVm‐NH2
T1 construct: synthetic hexapeptide agonist of formyl peptide receptors; also called W‐peptide; target peptide; source: synthetic peptide (custom peptide synthesis, purity >95%)
T1 peptide: WKYMV[dM]-NH2
Assay: SPR; graphene-enhanced MP-SPR; peptide immobilised on PBA-graphene by amine coupling; nucleofected HEK293T cells (≈100 cells mL^-1) injected at 10 µL min^-1 for 20 min in C1 buffer pH 7.4; 22 °C
Conditions: one partner purified

B1: Formyl peptide receptor 2 (FPR2) on transfected HEK293T cells (receptor, human, UniProt P25090 1-351, looked up)
chain: METNFSTPLNEYEEVSYESAGYTVLRILPLVVLGVTFVLGVLGNGLVIWVAGFRMTRTVTTICYLNLALADFSFTATLPFLIVSMAMGEKWPFGWFLCKLIHIVVDINLFGSVFLIGFIALDRCICVLHPVWAQNHRTVSLAMKVIVGPWILALVLTLPVFLFLTTVTIPNGDTYCTFNFASWGGTPEERLKVAITMLTARGIIRFVIGFSLPMSIVAICYGLIAAKIHKKGMIKSSRPLRVLTAVVASFFICWFPFQLVALLGTVWLKEMLFYGKYKIIDILVNPTSSLAFFNSCLNPMLYVFVGQDFRERLIHSLPTSLERALSEDSAPTNDTAANSASPPAETELQAM
notes: formyl peptide receptor 2, human, gene amplified from human genomic DNA and cloned into pcDNA3.1(+); also called HEK FPR2; HEK‐FPR2; source: nucleofection with a GFP plasmid for biosensors), on living cells
- SPR signal relative to the Control peptide (f-MEQQNK) surface: ~4 fold

Source: paper PMC13042608, “Cross‐Platform Biosensing of Immune Receptors Using Peptide‐Functionalized Graphene” (Advanced Science, 2025)
